Results as given in patent publication US20220372155A1 (LYVGEN BIOPHARMA, published 2022).

Molecular target: T1, human CD40 expressed on CHO cells (human, UniProt P25942 21-277)
T1 construct: whole, on cells; also used for the reporter cells over-expressing human CD40; also called cellular CD40; CHO-CD40 cells
Test: FACS, CHO cells

T1 sequence (P25942 21-277): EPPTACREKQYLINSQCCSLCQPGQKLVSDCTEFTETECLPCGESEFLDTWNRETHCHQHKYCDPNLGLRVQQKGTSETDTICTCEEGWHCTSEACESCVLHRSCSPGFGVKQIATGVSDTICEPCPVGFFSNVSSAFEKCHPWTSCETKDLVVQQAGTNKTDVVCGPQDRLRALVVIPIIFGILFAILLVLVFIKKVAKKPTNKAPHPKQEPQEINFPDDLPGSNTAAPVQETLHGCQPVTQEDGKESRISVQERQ

Binder | binding result
Ly411 (bispecific antibody, human IgG1, kappa, Ly311 HC (IgG1 mutated Fc) + Ly311 LC-TM559 scFv VL-VH) heavy: EVQLVESGGGVVQPGRSLRLSCSASGFDFTTYWMSWVRQAPGKGLEWIGEIHPDSSTINYAPSLKDRFTISRDNAKNTLFLQMDSLRPEDTGVYFCASLYFGFPWFAYWGQGTPVTVSSASTKGPSVFPLAPSSKSTSGGTAALGCLVKDYFPEPVTVSWNSGALTSGVHTFPAVLQSSGLYSLSSVVTVPSSSLGTQTYICNVNHKPSNTKVDKKVEPKSCDKTHTCPPCPAPELLGPSVFLFPPKPKDTLMISRTPEVTCVVVDVSHEDPEVKFNWYVDGVEVHNAKTKPREEQYNSTYRVVSVLTVLHQDWLNGKEYKCKVSNKALPAPIEKTISKAKGQPREPQVYTLPPSREEMTKNQVSLTCLVKGFYPSDIAVEWESNGQPENNYKTTPPVLDSDGSFFLYSKLTVDKSRWQQGNVFSCSVMHEALHNHYTQKSLSLSPGK light: DIQLTQSPSSLSASVGDRVTITCKASQDVGTSVAWYQQKPGKAPKLLIYWTSTRHTGVPSRFSGSGSGTDFTFTISSLQPEDIATYYCQQYSLYRSFGQGTKVEIKRTVAAPSVFIFPPSDEQLKSGTASVVCLLNNFYPREAKVQWKVDNALQSGNSQESVTEQDSKDSTYSLSSTLTLSKADYEKHKVYACEVTHQGLSSPVTKSFNRGECGGGGSGGGGSGGGGSGGGGSDIQMTQSPSSLSASVGDRVTITCLASEDISNDLAWYQQKPGKAPKLLIYFVDRLLDGVPSRFSGSGSGTDFTLTISSLQPEDFATYYCQQSYKYPPTFGQGTKLEIKGGGGSGGGGSGGGGSGGGGSEVQLVESGGGLVQPGGSLRLSCAASGFTFTNYGLHWVRQAPGKGLEWVSSISPSGGVTYYRDSVKGRFTISRDNSKNTLYLQMNSLRAEDTAVYYCAKPFLGWGGANWIAHWGQGTLVTVSS | binds
Ly412 (bispecific antibody, human IgG1, kappa, Ly311 HC (IgG1 mutated Fc) + Ly311 LC-TM559 scFv VH-VL) heavy: EVQLVESGGGVVQPGRSLRLSCSASGFDFTTYWMSWVRQAPGKGLEWIGEIHPDSSTINYAPSLKDRFTISRDNAKNTLFLQMDSLRPEDTGVYFCASLYFGFPWFAYWGQGTPVTVSSASTKGPSVFPLAPSSKSTSGGTAALGCLVKDYFPEPVTVSWNSGALTSGVHTFPAVLQSSGLYSLSSVVTVPSSSLGTQTYICNVNHKPSNTKVDKKVEPKSCDKTHTCPPCPAPELLGPSVFLFPPKPKDTLMISRTPEVTCVVVDVSHEDPEVKFNWYVDGVEVHNAKTKPREEQYNSTYRVVSVLTVLHQDWLNGKEYKCKVSNKALPAPIEKTISKAKGQPREPQVYTLPPSREEMTKNQVSLTCLVKGFYPSDIAVEWESNGQPENNYKTTPPVLDSDGSFFLYSKLTVDKSRWQQGNVFSCSVMHEALHNHYTQKSLSLSPGK light: DIQLTQSPSSLSASVGDRVTITCKASQDVGTSVAWYQQKPGKAPKLLIYWTSTRHTGVPSRFSGSGSGTDFTFTISSLQPEDIATYYCQQYSLYRSFGQGTKVEIKRTVAAPSVFIFPPSDEQLKSGTASVVCLLNNFYPREAKVQWKVDNALQSGNSQESVTEQDSKDSTYSLSSTLTLSKADYEKHKVYACEVTHQGLSSPVTKSFNRGECGGGGSGGGGSGGGGSGGGGSEVQLVESGGGLVQPGGSLRLSCAASGFTFTNYGLHWVRQAPGKGLEWVSSISPSGGVTYYRDSVKGRFTISRDNSKNTLYLQMNSLRAEDTAVYYCAKPFLGWGGANWIAHWGQGTLVTVSSGGGGSGGGGSGGGGSGGGGSDIQMTQSPSSLSASVGDRVTITCLASEDISNDLAWYQQKPGKAPKLLIYFVDRLLDGVPSRFSGSGSGTDFTLTISSLQPEDFATYYCQQSYKYPPTFGQGTKLEIK | binds
Ly409 (bispecific antibody, human IgG1, kappa, Ly311 HC (IgG1 mutated Fc)-TM559 scFv VL-VH + Ly311 LC) heavy: EVQLVESGGGVVQPGRSLRLSCSASGFDFTTYWMSWVRQAPGKGLEWIGEIHPDSSTINYAPSLKDRFTISRDNAKNTLFLQMDSLRPEDTGVYFCASLYFGFPWFAYWGQGTPVTVSSASTKGPSVFPLAPSSKSTSGGTAALGCLVKDYFPEPVTVSWNSGALTSGVHTFPAVLQSSGLYSLSSVVTVPSSSLGTQTYICNVNHKPSNTKVDKKVEPKSCDKTHTCPPCPAPELLGPSVFLFPPKPKDTLMISRTPEVTCVVVDVSHEDPEVKFNWYVDGVEVHNAKTKPREEQYNSTYRVVSVLTVLHQDWLNGKEYKCKVSNKALPAPIEKTISKAKGQPREPQVYTLPPSREEMTKNQVSLTCLVKGFYPSDIAVEWESNGQPENNYKTTPPVLDSDGSFFLYSKLTVDKSRWQQGNVFSCSVMHEALHNHYTQKSLSLSPGGGGGSGGGGSGGGGSGGGGSDIQMTQSPSSLSASVGDRVTITCLASEDISNDLAWYQQKPGKAPKLLIYFVDRLLDGVPSRFSGSGSGTDFTLTISSLQPEDFATYYCQQSYKYPPTFGQGTKLEIKGGGGSGGGGSGGGGSGGGGSEVQLVESGGGLVQPGGSLRLSCAASGFTFTNYGLHWVRQAPGKGLEWVSSISPSGGVTYYRDSVKGRFTISRDNSKNTLYLQMNSLRAEDTAVYYCAKPFLGWGGANWIAHWGQGTLVTVSS light: DIQLTQSPSSLSASVGDRVTITCKASQDVGTSVAWYQQKPGKAPKLLIYWTSTRHTGVPSRFSGSGSGTDFTFTISSLQPEDIATYYCQQYSLYRSFGQGTKVEIKRTVAAPSVFIFPPSDEQLKSGTASVVCLLNNFYPREAKVQWKVDNALQSGNSQESVTEQDSKDSTYSLSSTLTLSKADYEKHKVYACEVTHQGLSSPVTKSFNRGEC | binds
Ly410 (bispecific antibody, human IgG1, kappa, Ly311 HC (IgG1 mutated Fc)-TM559 scFv VH-VL + Ly311 LC) heavy: EVQLVESGGGVVQPGRSLRLSCSASGFDFTTYWMSWVRQAPGKGLEWIGEIHPDSSTINYAPSLKDRFTISRDNAKNTLFLQMDSLRPEDTGVYFCASLYFGFPWFAYWGQGTPVTVSSASTKGPSVFPLAPSSKSTSGGTAALGCLVKDYFPEPVTVSWNSGALTSGVHTFPAVLQSSGLYSLSSVVTVPSSSLGTQTYICNVNHKPSNTKVDKKVEPKSCDKTHTCPPCPAPELLGPSVFLFPPKPKDTLMISRTPEVTCVVVDVSHEDPEVKFNWYVDGVEVHNAKTKPREEQYNSTYRVVSVLTVLHQDWLNGKEYKCKVSNKALPAPIEKTISKAKGQPREPQVYTLPPSREEMTKNQVSLTCLVKGFYPSDIAVEWESNGQPENNYKTTPPVLDSDGSFFLYSKLTVDKSRWQQGNVFSCSVMHEALHNHYTQKSLSLSPGGGGGSGGGGSGGGGSGGGGSEVQLVESGGGLVQPGGSLRLSCAASGFTFTNYGLHWVRQAPGKGLEWVSSISPSGGVTYYRDSVKGRFTISRDNSKNTLYLQMNSLRAEDTAVYYCAKPFLGWGGANWIAHWGQGTLVTVSSGGGGSGGGGSGGGGSGGGGSDIQMTQSPSSLSASVGDRVTITCLASEDISNDLAWYQQKPGKAPKLLIYFVDRLLDGVPSRFSGSGSGTDFTLTISSLQPEDFATYYCQQSYKYPPTFGQGTKLEIK light: DIQLTQSPSSLSASVGDRVTITCKASQDVGTSVAWYQQKPGKAPKLLIYWTSTRHTGVPSRFSGSGSGTDFTFTISSLQPEDIATYYCQQYSLYRSFGQGTKVEIKRTVAAPSVFIFPPSDEQLKSGTASVVCLLNNFYPREAKVQWKVDNALQSGNSQESVTEQDSKDSTYSLSSTLTLSKADYEKHKVYACEVTHQGLSSPVTKSFNRGEC | binds

Other lines, results leading:

binding result | Binder
binds | Ly407 (bispecific antibody, human IgG1, kappa, Ly312 HC (IgG1 mutated Fc) + Ly312 LC-TM740 scFv VL-VH) heavy: EVQLVESGGGLVQPGGSLRLSCAASGFNIKDTYMHWVRQAPGKGLEWVARIDPANGNSKYADSVKGRFTISADTSKNTAYLQMNSLRAEDTAVYYCAPFGYYVSDYAMAYWGQGTLVTVSSASTKGPSVFPLAPSSKSTSGGTAALGCLVKDYFPEPVTVSWNSGALTSGVHTFPAVLQSSGLYSLSSVVTVPSSSLGTQTYICNVNHKPSNTKVDKKVEPKSCDKTHTCPPCPAPELLGPSVFLFPPKPKDTLMISRTPEVTCVVVDVSHEDPEVKFNWYVDGVEVHNAKTKPREEQYNSTYRVVSVLTVLHQDWLNGKEYKCKVSNKALPAPIEKTISKAKGQPREPQVYTLPPSREEMTKNQVSLTCLVKGFYPSDIAVEWESNGQPENNYKTTPPVLDSDGSFFLYSKLTVDKSRWQQGNVFSCSVMHEALHNHYTQKSLSLSPGK light: DIQLTQSPSSLSASVGDRVTITCRAGESVDIFGVGFLHWYQQKPGKAPKLLIYRASNLESGVPSRFSGSGSRTDFTLTISSLQPEDFATYYCQQTNEDPYTFGQGTKVEIKRTVAAPSVFIFPPSDEQLKSGTASVVCLLNNFYPREAKVQWKVDNALQSGNSQESVTEQDSKDSTYSLSSTLTLSKADYEKHKVYACEVTHQGLSSPVTKSFNRGECGGGGSGGGGSGGGGSGGGGSDIQMTQSPSSLSASVGDRVTITCKASQNIYIYLNWYQQKPGKAPKLLIYNTNNLQTGVPSRFSGSGSGTDFTLTISSLQPEDFATYYCLQHSSRRTFGGGTKVEIKGGGGSGGGGSGGGGSGGGGSQVQLVESGGGLVQPGGSLKLSCATSGFNFNDYFMNWVRQASGKGLEWVGQIRNKNYNYATYYTESLEGRVTISRDDSKNTAYLQMNSLKTEDTAVYYCTSYYYDGFADYFDYWGQGTTVTVSS
binds | Ly408 (bispecific antibody, human IgG1, kappa, Ly312 HC (IgG1 mutated Fc) + Ly312 LC-TM740 scFv VH-VL) heavy: EVQLVESGGGLVQPGGSLRLSCAASGFNIKDTYMHWVRQAPGKGLEWVARIDPANGNSKYADSVKGRFTISADTSKNTAYLQMNSLRAEDTAVYYCAPFGYYVSDYAMAYWGQGTLVTVSSASTKGPSVFPLAPSSKSTSGGTAALGCLVKDYFPEPVTVSWNSGALTSGVHTFPAVLQSSGLYSLSSVVTVPSSSLGTQTYICNVNHKPSNTKVDKKVEPKSCDKTHTCPPCPAPELLGPSVFLFPPKPKDTLMISRTPEVTCVVVDVSHEDPEVKFNWYVDGVEVHNAKTKPREEQYNSTYRVVSVLTVLHQDWLNGKEYKCKVSNKALPAPIEKTISKAKGQPREPQVYTLPPSREEMTKNQVSLTCLVKGFYPSDIAVEWESNGQPENNYKTTPPVLDSDGSFFLYSKLTVDKSRWQQGNVFSCSVMHEALHNHYTQKSLSLSPGK light: DIQLTQSPSSLSASVGDRVTITCRAGESVDIFGVGFLHWYQQKPGKAPKLLIYRASNLESGVPSRFSGSGSRTDFTLTISSLQPEDFATYYCQQTNEDPYTFGQGTKVEIKRTVAAPSVFIFPPSDEQLKSGTASVVCLLNNFYPREAKVQWKVDNALQSGNSQESVTEQDSKDSTYSLSSTLTLSKADYEKHKVYACEVTHQGLSSPVTKSFNRGECGGGGSGGGGSGGGGSGGGGSQVQLVESGGGLVQPGGSLKLSCATSGFNFNDYFMNWVRQASGKGLEWVGQIRNKNYNYATYYTESLEGRVTISRDDSKNTAYLQMNSLKTEDTAVYYCTSYYYDGFADYFDYWGQGTTVTVSSGGGGSGGGGSGGGGSGGGGSDIQMTQSPSSLSASVGDRVTITCKASQNIYIYLNWYQQKPGKAPKLLIYNTNNLQTGVPSRFSGSGSGTDFTLTISSLQPEDFATYYCLQHSSRRTFGGGTKVEIK
